B1: M8-H04 (Fab, V domains shown)
VH: EVQLLESGGGLVQPGGSLRLSCAASGFTFSGYWMGWVRQAPGKGLEWVSSISSSGGWTQYADSVKGRFTISRDNSKNTLYLQMNSLRAEDTATYYCARDDEIAAGGAFDIWGQGAMVTVSS
VL: DIQMTQSPSSLSASIGDRVTITCRASQYISTYLNWYEQKPGKAPKLLIYGTSSLQSGVPSRFSGSGSGTEFSLTISSLQPEDFATYYCQQSFTTPFTFGQGTKLEIK
notes: Fab fragment (E. coli TG1); printed HC runs into the start of CH1
B2: M8-G09 (Fab, V domains shown)
VH: EVQLLESGGGLVQPGGSLRLSCAASGFTFSLYEMLWVRQAPGKGLEWVSVIYPSGGYTDYADSVKGRFTISRDNSKNTLYLQMNSLRAEDMAVYYCARSFSGFGEIDYWGQGTLVTVSS
VL: DIQMTQSPSSLSASVGDTVTITCRASQGVSYYLAWFQQKPGKAPKSLIYGASSLQSGVPSKFSGSGSGTVFTLTISSLQPDDFATYYCQQYNTYPPTFGQGTRLDIK
notes: as for B1
B3: M8-E06 (Fab, V domains shown)
VH: EVQLLESGGGLVQPGGSLRLSCAASGFTFSHYFMTWVRQAPGKGLEWVSSIVPSGGMTQYADSVKGRFTISRDNSKNTLYLQMNSLRAEDTAVYYCARDSYSSSWFDIWGQGTMVTVSS
VL: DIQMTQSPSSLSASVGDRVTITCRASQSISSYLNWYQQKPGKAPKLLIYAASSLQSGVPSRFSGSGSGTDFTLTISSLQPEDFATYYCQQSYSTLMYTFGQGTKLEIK
notes: as for B1
B4: M9-A03 (Fab, V domains shown)
VH: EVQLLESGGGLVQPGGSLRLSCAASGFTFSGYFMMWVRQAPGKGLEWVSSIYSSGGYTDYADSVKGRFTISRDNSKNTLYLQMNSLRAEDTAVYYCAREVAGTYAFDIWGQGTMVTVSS
VL: DIQMTQSPSSLSASLGDRVTITCRASQNIDIYLNWYQQTPGKAPKLLIYGAYNLQSGVPSRFSGSGSGTDFTLTISSLQPEDFGTYYCQQSYGTPVFGQGTKLEIK
notes: as for B1
B5: M8-D05 (Fab, V domains shown)
VH: EVQLLESGGGLVQPGGSLRLSCAASGFTFSLYNMNWVRQAPGKGLEWVSSISPSGGFTDYADSVKGRFTISRDNSKNTLYLQMNSLRAEDTAVYYCARDLDLGILDYWGQGTLVTVSS
VL: DIQMTQSPSFVSASVGDRVTITCRASQDISSWLVWYQQKPGKGPKLLIYDASNLQSGVPSRFSGGGSGTHFTLTISSLQPEDFATYYCQQADGFPLTFGGGTKVEMK
notes: as for B1
B6: M206-A06 (Fab, V domains shown)
VH: EVQLLESGGGLVQPGGSLRLSCAASGFTFSNYMMGWVRQAPGKGLQWVSSISPSGGLTKYADSVKGRFTISRDNSKNTLYLQMNSLRAEDTAVYYCARVARGIAARSRTSYFDYWGQGTLVTVSS
VL: DIQMTQSPGTLSLSPGERATLSCRTSQFVNSNYLAWYQQTPGQAPRLLIYGASSRATGIPDRFSGTGYGTDFTLTISRLEPEDYGTYYCQQSSRTPWTFGQGTRVEIK
B7: M209-D12 (Fab, V domains shown)
VH: B6 VH with N31H, M33L, G35T, Q46E, S50Y, L57H, K59I, R98T, Y114Q
VL: B6 VL
B8: M207-A04 (Fab, V domains shown)
VH: B6 VH with N31H, M33L, G35T, Q46E, S50Y, L57H, K59I, S110R, Y111S
VL: B6 VL
B9: M208-G02 (Fab, V domains shown)
VH: B6 VH with N31H, M33L, G35T, Q46E, S50Y, L57H, K59I, A105D, F112S
VL: B6 VL
B10: M205-A02 (Fab, V domains shown)
VH: B6 VH with N31T, M33L, G35A, Q46E, S50G, S52V, P53S, L57R, K59L
VL: B6 VL
B11: M205-C11 (Fab, V domains shown)
VH: B6 VH with N31Q, G35M, Q46E, S50R, L57S, K59L
VL: B6 VL
B12: M209-H09 (Fab, V domains shown)
VH: B6 VH with N31H, M33L, G35T, Q46E, S50Y, L57H, K59I, S110V, Y114H
VL: B6 VL
B13: M209-H03 (Fab, V domains shown)
VH: B6 VH with N31H, M33L, G35T, Q46E, S50Y, L57H, K59I, R101Q, S110T, Y111Q
VL: B6 VL
B14: M209-B11 (Fab, V domains shown)
VH: B6 VH with N31H, M33L, G35T, Q46E, S50Y, L57H, K59I, S110R, F112I, Y114Q
VL: B6 VL
B15: M204-E12 (Fab, V domains shown)
VH: B6 VH with N31T, G35Q, Q46E, S50Y, S52G, L57K, K59D
VL: B6 VL
B16: M206-E02 (Fab, V domains shown)
VH: B6 VH with N31E, G35M, Q46E, S50V, L57Q, K59H
VL: B6 VL
B17: M206-H05 (Fab, V domains shown)
VH: B6 VH with N31G, M33K, G35Q, Q46E, L57I, K59M
VL: B6 VL
B18: M205-E11 (Fab, V domains shown)
VH: B6 VH with M33T, Q46E, L57K, K59D
VL: B6 VL
B19: M210-H01 (Fab, V domains shown)
VH: B6 VH with N31H, M33L, G35T, Q46E, S50Y, L57H, K59I, T109N, Y111Q, F112Q
VL: B6 VL
B20: M208-A10 (Fab, V domains shown)
VH: B6 VH with N31H, M33L, G35T, Q46E, S50Y, L57H, K59I, Y111Q, Y114H
VL: B6 VL
B21: M206-H01 (Fab, V domains shown)
VH: B6 VH with N31E, G35V, Q46E, S50R, L57T, K59E
VL: B6 VL
B22: M208-B01 (Fab, V domains shown)
VH: B6 VH with N31H, M33L, G35T, Q46E, S50Y, L57H, K59I, Y111F, Y114Q
VL: B6 VL
B23: M205-H08 (Fab, V domains shown)
VH: B6 VH with N31D, G35M, Q46E, S52V, L57H, K59Q
VL: B6 VL
B24: M209-C02 (Fab, V domains shown)
VH: B6 VH with N31H, M33L, G35T, Q46E, S50Y, L57H, K59I, A105Y, S107R
VL: B6 VL
B25: M204-A02 (Fab, V domains shown)
VH: B6 VH with N31D, G35T, S50Y, K59S
VL: B6 VL
B26: M206-F09 (Fab, V domains shown)
VH: B6 VH with N31V, G35S, Q46E, S52V, L57S, K59T
VL: B6 VL
B27: M209-G07 (Fab, V domains shown)
VH: B6 VH with N31H, M33L, G35T, Q46E, S50Y, L57H, K59I, Y114T
VL: B6 VL

Positions count from the first letter of the chain named.

The % inhibition is the relative decrease from the control value, in per cent. A lower % inhibition goes with little suppression.

One assay addresses T1, human plasma kallikrein (human, UniProt P03952 20-390; P03952 391-638).
T1 construct: two disulfide-linked chains; also called pKal; human pKal
The assay is described as follows: ELISA; signal on coated biotinylated human plasma kallikrein divided by signal on streptavidin; Fab. The text has this:
Abbreviations used: "T/B" is the ELISA signal obtained using of the target (biotinylated plasma kallikrein) divided by the ELISA signal of the "background" (streptavidin); both of which were coated on microtiter plates. "nd" is not determined. The symbol "q" refers to the amber suppressible stop codon (TAG), which is translated as glutamine (Q) in strains of E. coli such as the TG1 cells that were used to express the Fab fragments.
Background: An ELISA detects its analyte on a solid surface through an enzyme-linked reagent.
T1 sequence (P03952 20-390, chain 1 of 2): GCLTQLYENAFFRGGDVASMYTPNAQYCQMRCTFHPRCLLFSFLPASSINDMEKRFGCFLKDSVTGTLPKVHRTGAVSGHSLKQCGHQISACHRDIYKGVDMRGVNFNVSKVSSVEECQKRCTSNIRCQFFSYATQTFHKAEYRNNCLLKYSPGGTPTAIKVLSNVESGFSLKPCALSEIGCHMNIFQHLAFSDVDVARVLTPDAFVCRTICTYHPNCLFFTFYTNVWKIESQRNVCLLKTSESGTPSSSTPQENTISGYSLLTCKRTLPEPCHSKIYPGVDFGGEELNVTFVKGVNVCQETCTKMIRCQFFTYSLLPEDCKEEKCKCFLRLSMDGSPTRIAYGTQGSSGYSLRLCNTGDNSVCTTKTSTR
T1 sequence (P03952 391-638, chain 2 of 2): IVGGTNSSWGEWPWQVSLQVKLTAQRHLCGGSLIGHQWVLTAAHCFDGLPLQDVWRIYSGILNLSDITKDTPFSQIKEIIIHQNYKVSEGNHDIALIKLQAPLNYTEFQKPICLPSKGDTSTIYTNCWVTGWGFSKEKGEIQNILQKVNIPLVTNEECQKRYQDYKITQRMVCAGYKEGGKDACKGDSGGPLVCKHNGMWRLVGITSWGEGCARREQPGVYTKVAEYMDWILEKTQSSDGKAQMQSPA
Take B1: the “Human pKal ELISA (T/B)” value was 3.3 T/B (target signal / background signal). On the same count and under the same terms, next, B2: 28.2 T/B (target signal / background signal); B3: 8.8 T/B (target signal / background signal). Same read-out and setting: the result for B4 reads 14.4 T/B (target signal / background signal). The same measure, in the same setting: next, B5: 11.9 T/B (target signal / background signal).

For another assay, the target named is human plasma kallikrein (human, UniProt P03952 20-390; P03952 391-638). The assay is described as follows: cell-based or functional assay.
Target sequence in this assay (P03952 20-390, chain 1 of 2): as the sequence (P03952 20-390, chain 1 of 2) above
Target sequence in this assay (P03952 391-638, chain 2 of 2): as the sequence (P03952 391-638, chain 2 of 2) above
As for B6, the “% inhibition at 10 nM” value is 93%. Still for that read-out and setting: next, B7: 85.4%. Same read-out and setting: the result for B8 reads 90.9%. Still for that read-out and setting: the result for B9 reads 86.7%; that for B10, 80.3%; that for B11, 86.5%. With B12, the “% inhibition at 10 nM” value is 85.3%. Same read-out and setting: next, B13: 82.6%; B14: 87.3%; B15: 84.1%. The same measure, in the same setting: next, B16: 77.6%; B17: 82.5%; B18: 78.2%.

Consider B19, for which the “% inhibition at 10 nM” value was 85.5%. Same read-out and setting: next, B20: 78.5%; B21: 87.6%. Consider B22, for which the “% inhibition at 10 nM” value was 90.1%. Still for that read-out and setting: next, B23: 85.9%; B24: 86.8%. B25: the “% inhibition at 10 nM” value came out at 89.5%.

On to B26, for which the “% inhibition at 10 nM” value worked out at 86.8%.

B27: the “% inhibition at 10 nM” value was determined as 89.8%.

The values are drawn from patent US9266964.
